Measured values published in patent US20250042957A1 (Molecular Partners, published 2025).
Changes are numbered by the printed parent chain.

T1: scCD3εγ
T1 chain 1: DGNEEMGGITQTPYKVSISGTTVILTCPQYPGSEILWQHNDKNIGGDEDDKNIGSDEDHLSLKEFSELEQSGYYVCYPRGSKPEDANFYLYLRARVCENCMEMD
T1 chain 2: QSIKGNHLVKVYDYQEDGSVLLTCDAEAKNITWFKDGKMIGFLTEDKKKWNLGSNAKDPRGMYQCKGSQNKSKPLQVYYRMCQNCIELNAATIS

T2: Switchdrug DARPin 17-3
T2 construct: also called 2-in-1 DARPin17 in Format 3
T2 chain: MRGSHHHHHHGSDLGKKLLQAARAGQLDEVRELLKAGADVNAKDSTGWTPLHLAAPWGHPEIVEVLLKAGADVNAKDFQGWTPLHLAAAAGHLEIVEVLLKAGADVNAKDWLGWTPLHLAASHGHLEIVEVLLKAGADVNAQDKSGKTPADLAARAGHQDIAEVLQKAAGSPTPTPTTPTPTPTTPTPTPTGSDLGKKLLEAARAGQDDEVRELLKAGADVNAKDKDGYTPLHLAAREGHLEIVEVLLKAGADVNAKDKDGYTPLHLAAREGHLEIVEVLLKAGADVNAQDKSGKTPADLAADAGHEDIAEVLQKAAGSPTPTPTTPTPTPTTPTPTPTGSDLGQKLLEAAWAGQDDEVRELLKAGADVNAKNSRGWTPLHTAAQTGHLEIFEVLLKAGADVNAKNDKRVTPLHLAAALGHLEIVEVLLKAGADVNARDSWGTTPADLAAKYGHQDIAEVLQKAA

T3: Switchdrug DARPin 17-1
T3 construct: also called 2-in-1 DARPin17 in Format 1
T3 chain: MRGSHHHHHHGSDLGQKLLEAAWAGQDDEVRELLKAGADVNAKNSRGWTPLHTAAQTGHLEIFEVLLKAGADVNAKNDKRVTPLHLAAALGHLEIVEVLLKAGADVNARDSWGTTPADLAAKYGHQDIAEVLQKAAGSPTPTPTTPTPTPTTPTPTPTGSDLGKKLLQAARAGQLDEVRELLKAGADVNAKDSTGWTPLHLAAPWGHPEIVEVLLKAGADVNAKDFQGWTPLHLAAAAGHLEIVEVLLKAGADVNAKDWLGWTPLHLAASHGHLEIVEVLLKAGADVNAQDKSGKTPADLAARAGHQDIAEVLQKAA

T4: Switchdrug DARPin 18-3
T4 construct: also called 2-in-1 DARPin18 in Format 3
T4 chain: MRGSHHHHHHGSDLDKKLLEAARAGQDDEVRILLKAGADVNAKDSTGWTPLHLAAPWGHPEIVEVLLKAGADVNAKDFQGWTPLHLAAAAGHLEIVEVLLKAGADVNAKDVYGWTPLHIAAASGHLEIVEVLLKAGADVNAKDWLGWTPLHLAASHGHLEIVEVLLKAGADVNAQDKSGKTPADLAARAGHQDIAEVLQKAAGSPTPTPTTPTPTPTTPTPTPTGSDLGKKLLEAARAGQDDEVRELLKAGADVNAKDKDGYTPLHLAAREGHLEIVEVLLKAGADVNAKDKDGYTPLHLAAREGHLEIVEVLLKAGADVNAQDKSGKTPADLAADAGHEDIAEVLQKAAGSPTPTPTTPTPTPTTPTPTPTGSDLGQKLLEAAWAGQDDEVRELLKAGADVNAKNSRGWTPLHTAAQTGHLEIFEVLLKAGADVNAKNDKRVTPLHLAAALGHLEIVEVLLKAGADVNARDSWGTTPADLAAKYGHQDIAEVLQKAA

T5: Switchdrug DARPin 15-3
T5 construct: also called 2-in-1 DARPin15 in Format 3
T5 chain: T2 chain with G15D, Q20E, L27D, E32I

B1: Switchdrug DARPin 17-B (designed binder)
chain: MRGSHHHHHHGSDLGKKLLQAARAGQLDEVRELLKAGADVNAKDSTGWTPLHLAAPWGHPEIVEVLLKAGADVNAKDFQGWTPLHLAAAAGHLEIVEVLLKAGADVNAKDWLGWTPLHLAASHGHLEIVEVLLKAGADVNAQDKSGKTPADLAARAGHQDIAEVLQKAAGSPTPTPTTPTPTPTTPTPTPTGSDLGKKLLQAARAGQLDEVRELLKAGADVNAKDQYGRTPLHLAAIKGHLEIVEVLLKAGADVNAKDSLGYTPLHLAAVEGPLEIVEVLLKAGADVNAKDAYGQTPLHIAAAWGHLEIVEVLLKAVADVNAQDKSGKTPADLAARAGHQDIAEVLQKAAGSPTPTPTTPTPTPTTPTPTPTGSDLGQKLLEAAWAGQDDEVRELLKAGADVNAKNSRGWTPLHTAAQTGHLEIFEVLLKAGADVNAKNDKRVTPLHLAAALGHLEIVEVLLKAGADVNARDSWGTTPADLAAKYGHQDIAEVLQKAA
notes: also called 2-in-1 DARPin17 in Format B
B2: CD3-specific binding domain (SEQ ID NO: 3) (designed binder)
chain: DLGQKLLEAAWAGQDDEVRELLKAGADVNAKNSRGWTPLHTAAQTGHLEIFEVLLKAGADVNAKNDKRVTPLHLAAALGHLEIVEVLLKAGADVNARDSWGTTPADLAAKYGHQDIAEVLQKAA
modifications: biotinylated when used as immobilized SPR ligand (site not stated)
notes: also called α-CD3 DARPin
B3: VEGF-binder (SEQ ID NO: 1) (designed binder)
chain: DLDKKLLEAARAGQDDEVRILLKAGADVNAKDSTGWTPLHLAAPWGHPEIVEVLLKAGADVNAKDFQGWTPLHLAAAAGHLEIVEVLLKAGADVNAQDKSGKTPADLAADAGHEDIAEVLQKAA
notes: said to be disclosed in WO 2016/156596
B4: VEGF165 (ligand, UniProt P15692-4 27-191, looked up)
chain: APMAEGGGQNHHEVVKFMDVYQRSYCHPIETLVDIFQEYPDEIEYIFKPSCVPLMRCGGCCNDEGLECVPTEESNITMQIMRIKPHQGQHIGEMSFLQHNKCECRPKKDRARQENPCGPCSERRKHLFVQDPQTCKCSCKNTDSRCKARQLELNERTCRCDKPRR
modifications: biotinylated in the ELISA of Example 4 (site not stated)
notes: also called biotinylated VEGF165; soluble VEGF

How the values were obtained:
VEGF165 [1] = biological target: B4; test: ELISA: plate-bound biotinylated VEGF165, His-tagged construct titrated, no soluble VEGF, anti-His-HRP detection
Protocol: (§1) Then a titration of the Switchdrug DARPins was applied, incubated and washed. Detection of bound his-tagged constructs was done by anti-RGS(his)4 mAb HRP conjugate, and detected by TMB substrate.

scCD3εγ [2] = biological target: T1, scCD3εγ; test: ELISA, biotinylated scCD3εγ on neutravidin plate, with against without 100 nM VEGF
Protocol: (§2) The difference in binding of Switchdrug DARPins to scCD3εγ in presence and absence of VEGF was assessed. […] Said Switchdrug DARPins were mixed with a constant concentration of VEGF (100 nM) and tested for binding to scCD3εγ. […] The difference in EC50 of a construct in presence and absence of VEGF can be referred to as the “activation window”.
(§3) Switchdrug DARPins that were mixed with VEGF were titrated and pre-incubated for 1 day with VEGF in order to establish the thermodynamic equilibrium. These samples were loaded on the ELISA plate, incubated and washed, before the bound Switchdrug DARPins were detected as described above.

scCD3εγ [3] = biological target: T1, scCD3εγ; test: ELISA: plate-bound biotinylated scCD3εγ, His-tagged construct titrated in presence of 100 nM soluble VEGF
Protocol: as §2, §3

VEGF165 [4] = biological target: B4; test: cell-based or functional assay
scCD3εγ [5] = biological target: T1, scCD3εγ; test: ELISA: plate-bound biotinylated scCD3εγ, His-tagged α-CD3 mono-DARPin titrated in presence of 100 nM soluble VEGF
Protocol: (§4) ELISA assays offer an easy and qualitative way to determine the binding of the Switchdrug DARPin constructs to a target. The difference in binding of Switchdrug DARPins to scCD3εγ in presence and absence of VEGF was assessed. […] Said Switchdrug DARPins were mixed with a constant concentration of VEGF (100 nM) and tested for binding to scCD3εγ. […] The difference in EC50 of a construct in presence and absence of VEGF can be referred to as the “activation window”.
as §3

scCD3εγ [6] = biological target: T1, scCD3εγ; test: as above
Protocol: as §4, §3

scCD3εγ [7] = biological target: T1, scCD3εγ; test: ELISA: plate-bound biotinylated scCD3εγ, His-tagged α-CD3 mono-DARPin titrated, no VEGF
scCD3εγ [8] = biological target: T1, scCD3εγ; test: as above
scCD3εγ [9] = biological target: T1, scCD3εγ; test: as above
scCD3εγ [10] = biological target: T1, scCD3εγ; test: as above
scCD3εγ [11] = biological target: T1, scCD3εγ; test: as above
scCD3εγ [12] = biological target: T1, scCD3εγ; test: SPR, bio-scCD3εγ coated on NAD chip, DARPin 333.33-4.11 nM
scCD3εγ [13] = biological target: T1, scCD3εγ; test: ELISA on scCD3εγ, DARPin titrated
scCD3εγ [14] = biological target: T1, scCD3εγ; test: ELISA: plate-bound biotinylated scCD3εγ, His-tagged α-CD3 mono-DARPin titrated, no VEGF
scCD3εγ [15] = biological target: T1, scCD3εγ; test: as above
VEGF165 [16] = biological target: B4; test: SPR (ProteOn), VEGF165 immobilized, single-trace 50 nM, 25 C
VEGF165 [17] = biological target: B4; test: ELISA: plate-bound biotinylated VEGF165, His-tagged binder titrated, anti-His-HRP detection
Protocol: Binding is detected via an HRP-labeled anti-His antibody.
as §1

Switchdrug DARPin 17-3 [18] = biological target: T2, Switchdrug DARPin 17-3; test: ELISA: 10 nM Switchdrug DARPin 17-3 pre-incubated with titrated soluble VEGF; read-out is the construct bound to plate-bound biotinylated scCD3εγ (release of the α-CD3 binder)
Protocol: as §3

Switchdrug DARPin 17-1 = biological target: T3, Switchdrug DARPin 17-1; test: ELISA: 10 nM Switchdrug DARPin 17-1 pre-incubated with titrated soluble VEGF; read-out is the construct bound to plate-bound biotinylated scCD3εγ (release of the α-CD3 binder)
Protocol: as §3

Switchdrug DARPin 18-3 [19] = biological target: T4, Switchdrug DARPin 18-3; test: HTRF: 20 nM Switchdrug DARPin with titrated soluble VEGF; read-out is the construct's binding to 1 nM biotinylated scCD3εγ (release of the α-CD3 binder)
Protocol: (§5) Said Switchdrug DARPins (20 nM final concentration) were mixed with 1 nM (final concentration) scCD3εγ, 1:200 (final concentration) of anti-FLAG-d2 HTRF antibody-FRET acceptor conjugate (Cisbio) and 1:200 (final concentration) of anti-strep-Tb antibody FRET donor conjugate (Cisbio, France). […] The mix was added to a well of a 384-well plate and incubated for 90 minutes.

Switchdrug DARPin 17-3 [20] = biological target: T2, Switchdrug DARPin 17-3; test: as above
Protocol: as §5

Switchdrug DARPin 15-3 = biological target: T5, Switchdrug DARPin 15-3; test: as above
Protocol: as §5

Switchdrug DARPin 18-3 [21] = biological target: T4, Switchdrug DARPin 18-3; test: ELISA: 100 nM Switchdrug DARPin 18-3 pre-incubated with titrated soluble VEGF; read-out is the construct bound to plate-bound biotinylated scCD3εγ (release of the α-CD3 binder)
Protocol: as §3

Binder: B1
EC50 (read off the curve) (VEGF165 [1]): ~30 nM
activation window (difference in EC50 in presence and absence of VEGF) (scCD3εγ [2]): ~178 fold
EC50 (read off the curve) (scCD3εγ [3]): ~2 nM
T-cell activation (CD69+ cells of CD8+ T cells, Molm-13 target cells): activation window (VEGF165 [4]): 75 fold

Binder: B2
EC50 (read off the curve) (scCD3εγ [5]): ~4 nM
EC50 (read off the curve) (scCD3εγ [6]): ~4 nM
EC50 (read off the curve) (scCD3εγ [7]): ~3 nM
EC50 (read off the curve) (scCD3εγ [8]): ~5 nM
EC50 (read off the curve) (scCD3εγ [9]): ~3 nM
EC50 (read off the curve) (scCD3εγ [10]): ~5 nM
EC50 (read off the curve) (scCD3εγ [11]): ~3 nM
Kd (scCD3εγ [12]): 2.03 nM
EC50 (read off the curve) (scCD3εγ [13]): ~3 nM
EC50 (read off the curve) (scCD3εγ [14]): ~3 nM
EC50 (read off the curve) (scCD3εγ [15]): ~4 nM

Binder: B3
Kd (VEGF165 [16]): 0.21 nM
koff (VEGF165 [16]): 0.00014 s⁻¹
kon (VEGF165 [16]): 646000 M⁻¹ s⁻¹
EC50 (read off the curve) (VEGF165 [17]): ~0.5 nM

Binder: B4
EC50 (read off the curve) (Switchdrug DARPin 17-3 [18]): ~7 nM
EC50 (read off the curve) (Switchdrug DARPin 17-1): ~4 nM
EC50 (read off the curve) (Switchdrug DARPin 18-3 [19]): ~70 nM
EC50 (read off the curve) (Switchdrug DARPin 17-3 [20]): ~30 nM
EC50 (read off the curve) (Switchdrug DARPin 15-3): ~30 nM
EC50 (read off the curve) (Switchdrug DARPin 18-3 [21]): ~40 nM
